Measurements reported in paper PMC8837534, “CD147 supports paclitaxel resistance via interacting with RanBP1” (Oncogene, 2022).

Molecular target: T1, RanBP1 protein (full-length, recombinant) (UniProt P43487 1-201)
T1 construct: pMAL-c5x vector; that this removed MBP is inferred; source: E. coli BL21 (DE3), purified (MBPTrap HP, thrombin digestion, Superdex 75); not shown: MBP, N-terminal, cleaved
Assay: SPR; ProteOn XPR36, One-shot Kinetics; concentration series of CD147^ICD injected over the immobilized ligand in TBS-T, 50 μL/min for 3 min, dissociation 12 min; constants by ProteOn Manager Software
Details: both partners purified

T1 sequence (P43487 whole entry): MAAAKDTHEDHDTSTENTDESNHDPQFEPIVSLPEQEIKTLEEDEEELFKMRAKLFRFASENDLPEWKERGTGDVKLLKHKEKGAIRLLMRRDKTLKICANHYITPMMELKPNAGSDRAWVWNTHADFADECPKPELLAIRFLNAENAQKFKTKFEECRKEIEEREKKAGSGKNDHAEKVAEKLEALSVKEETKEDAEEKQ

Kd: 2250 nM
B1: His6-tagged CD147^ICD (intracellular domain of CD147, residues 231-269) (domain or fragment, UniProt P35613-2 231-269, looked up)
chain: KRRKPEDVLDDDDAGSAPLKSSGQHQNDKGKNVRQRNSS
notes: CD147 (basigin), intracellular domain, residues 231-269; One preparation is described (pET21a, 'SUMO-His tag at the C-terminus', SUMO removed by Ulp1); The pull-down names the bait as His6-tagged; source: E. coli BL21 (DE3), purified (HisTrap HP, Ulp1 digestion, Superdex 75); not shown: SUMO, C-terminal, cleaved; His6, C-terminal, kept
